Source: PMC5937170

Experiments:
Details in all cases: EMSA: 15 ul, 70 C for 15 min, buffer per Ochs et al. 2012 (not given), 8% native PAGE; footprint: same binding conditions, DNase I at 37 C
[1] = biological target: T1, TFB-RF1 (Pyrococcus furiosus) (UniProt Q8U1W6); assay: EMSA
T1 sequence: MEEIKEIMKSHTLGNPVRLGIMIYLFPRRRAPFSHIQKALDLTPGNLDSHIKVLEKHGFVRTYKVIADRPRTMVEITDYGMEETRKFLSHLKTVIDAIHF

[2] = biological target: T2, TFB-RF1;TBP;TFB (Pyrococcus furiosus;Pyrococcus furiosus?;Pyrococcus furiosus?) (UniProt Q8U1W6+P62000+P61998); assay: EMSA
T2 sequence 1: T1 sequence
T2 sequence 2: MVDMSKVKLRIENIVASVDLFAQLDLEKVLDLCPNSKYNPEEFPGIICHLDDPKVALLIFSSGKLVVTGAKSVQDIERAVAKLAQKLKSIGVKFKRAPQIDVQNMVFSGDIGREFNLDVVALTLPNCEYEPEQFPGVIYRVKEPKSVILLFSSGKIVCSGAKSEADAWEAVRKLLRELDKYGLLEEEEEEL
T2 sequence 3: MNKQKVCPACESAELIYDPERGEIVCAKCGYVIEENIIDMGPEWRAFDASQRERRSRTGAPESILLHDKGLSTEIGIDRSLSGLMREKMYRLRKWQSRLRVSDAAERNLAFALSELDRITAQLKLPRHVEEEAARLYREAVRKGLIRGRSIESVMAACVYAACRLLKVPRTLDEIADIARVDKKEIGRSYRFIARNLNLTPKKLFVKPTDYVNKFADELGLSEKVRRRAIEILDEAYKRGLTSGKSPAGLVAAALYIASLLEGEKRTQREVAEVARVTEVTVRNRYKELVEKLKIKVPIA

[3] = biological target: T1, TFB-RF1 (Pyrococcus furiosus); assay: DNase I footprinting

Sequence	binding [1]	binding [2]	binding [3]
ACTATTTTGGAAATTAGTTAAAGCTTCTAAAAAAGCTTGTTGTTTTTCTGGGATTCAGACGGATTATTTACAAAAAAGGAAAGGAATATTGGTAGCTATA (double strand) [pf1011/1012 promoter region (EMSA)]	binds	binds	–
ACTATTTTGGAAATTAGTTAAAGCTTCTAAAAAAGCTTGTTGTTTTTCTGGGATTCAGACGGATTATTTACAAAAAAGGAAAGGAATATTGGTAGCTATA (double strand) [pf1011/1012 promoter region (footprint)]	–	–	binds
